Target: CNGB3N-EGFP-F (striped bass (Morone saxatilis)) (UniProt Q3I0N1)
Assay: FRET or BRET

“CNG-modulin-HaloTag-TMR (from UniProt H8PG32 1-301) (natural protein)” showed an E FRET (FRET efficiency), mean of 0.3.
